This note sets out measurements from patent publication US20260027220A1, “EPHA2 BCL-XL INHIBITOR ANTIBODY-DRUG CONJUGATES AND METHODS OF USE THEREOF” (Novartis AG, priority 2022, published 2026).

Values joined by “and” are separate entries in the source; they are usually repeats but may differ in a detail not shown here. Equal values may be shown once.

The target in assay [1] is T1, human EphA2 expressed on HKB-11 cells (human, UniProt P29317 24-976).
T1 construct: The HKB-11 cells were transduced to overexpress EphA2; also called HKB-11 EphA2+ cell line
The assay can be described thus: flow cytometry on HKB-11 cells overexpressing EphA2; lot DE-54-AX20.
Protocol: (§1) The binding affinity of EphA2 antibodies on cells was evaluated using flow cytometry (FACS). […] Cell lines were cultured in media that is optimal for their growth at 5% CO₂, 37° C. in a tissue culture incubator. Cell viability and cell density were determined using a cell counter (Vi-Cell XR Cell Viability Analyzer, Beckman Coulter). […] All subsequent steps were performed on ice and in ice cold FACS buffer to prevent internalization of the receptor. Cells were resuspended in 100 μL of FACS buffer containing an 11-point serial dilution of test antibodies at final concentrations of 200 nM-0.003 nM. Cells were incubated at 4° C. for 45 minutes. Following incubation, cells were washed three times in ice cold PBS at 1000 rpm for 5 minutes with 200 μL FACS buffer. […] Cells were incubated in the dark at 4° C. for 45 minutes. Following incubation, cells were washed three times in ice cold PBS at 1000 rpm for 5 minutes with 200 μL FACS buffer. Cells were then resuspended in 100 μL FACS buffer containing DAPI (ThermoFisher, #D1306) staining followed by readout via flow cytometry (MACSQuant® Analyzer 10). Data was analyzed using FlowJo v10.8.1 to obtain MFI (Mean Fluorescence Intensity) on live cells. EC₅₀ values were calculated using the GraphPad Prism 9 software. There were three rounds of experiments performed to evaluate three groupings of EphA2 antibodies. […]

For another assay, the target named is T2, human EphA2 ectodomain (human, UniProt P29317 24-537).
T2 construct: Soluble ectodomain used as the SPR analyte
The assay can be described thus: SPR (Biacore 8k), Fab-capture, 37C, 1:1 model.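 Further: Anti-EphA2 IgG captured via immobilized anti-Fab, soluble EphA2 ectodomain as analyte at six twofold dilutions from 50 nM, HBS-EP+ pH 7.6 running buffer, double reference subtraction.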 Background: SPR reads the build-up and loss of mass on a sensor chip optically.

In another assay the target is T3, mouse EphA2 ectodomain (mouse, UniProt Q03145 26-538).
T3 construct: extracellular domain
The assay can be described thus: SPR (Biacore 8k), Fab-capture, 37C, 1:1 model.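 Further: Anti-EphA2 IgG captured via immobilized anti-Fab, soluble EphA2 ectodomain as analyte at six twofold dilutions from 50 nM, HBS-EP+ pH 7.6 running buffer, double reference subtraction.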

The target in another assay is T4, cyno EphA2 ectodomain (cyno, UniProt Q1KL86 25-537).
T4 construct: extracellular domain
Briefly: SPR (Biacore 8k), Fab-capture, 37C, 1:1 model.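 Further: Anti-EphA2 IgG captured via immobilized anti-Fab, soluble EphA2 ectodomain as analyte at six twofold dilutions from 50 nM, HBS-EP+ pH 7.6 running buffer, double reference subtraction.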

Assay [2] deals with T1, human EphA2 expressed on HKB-11 cells. Briefly: flow cytometry on HKB-11 cells overexpressing EphA2; lot VE-39-AK34. (A flow cytometer gives signals particle by particle.)
Protocol: as §1
Assay [3] shares this target. The assay can be described thus: KinExA avid equilibrium KD on cells, average of replicates. (In KinExA the mixture passes briefly over coated beads that capture the unbound partner.)
Protocol: (§2) Free antibody in equilibrium titration reactions were measured by KinExA using a KinExA 3200, Autosampler (Sapidyne). Data were analyzed using KinExA Pro 4-5-X (Sapidyne).
(§3) Anti-EphA2 antibody was diluted in PBS with 10% HI-FBS and 0.04% sodium azide to 2× the final concentration of binding sites needed for equilibrium titration. […] Cells and antibody were combined 1:1 in an eppendorf tube and incubated overnight, 4° C., rotating. Buffer and antibody alone samples were included. Cells were pelleted and supernatants were transferred to a 2 ml 96-well deep well plate covered with pierceable film.
Data were analyzed by n-Curve Analysis.
Assay [4] shares this target. Briefly: KinExA apparent (avid) equilibrium KD on human EphA2 HKB-11 cells.
Protocol: as §2, §3
Data were analyzed by n-Curve Analysis.
Assay [5] has the same target. Briefly: flow cytometry on HKB-11 cells overexpressing EphA2; lot HE-07-PV32.
Protocol: as §1
Assay [6] shares this target. Briefly: flow cytometry on HKB-11 cells overexpressing EphA2; lot DA-62-QP06.
Protocol: as §1
Assay [7] has the same target. Briefly: flow cytometry on HKB-11 cells overexpressing EphA2; lot PE-07-PN32.
Protocol: as §1
The target is the same in assay [8]. The assay can be described thus: flow cytometry on HKB-11 cells overexpressing EphA2; lot HA-13-AF39.
Protocol: as §1
The target is the same in assay [9]. The assay can be described thus: FACS titration on HKB-11 cells transduced to overexpress EphA2 (200 to 0.003 nM antibody, Alexa Fluor 647 anti-human IgG, MFI of live cells).
Protocol: as §1

T1 sequence (P29317 24-976 limits assumed): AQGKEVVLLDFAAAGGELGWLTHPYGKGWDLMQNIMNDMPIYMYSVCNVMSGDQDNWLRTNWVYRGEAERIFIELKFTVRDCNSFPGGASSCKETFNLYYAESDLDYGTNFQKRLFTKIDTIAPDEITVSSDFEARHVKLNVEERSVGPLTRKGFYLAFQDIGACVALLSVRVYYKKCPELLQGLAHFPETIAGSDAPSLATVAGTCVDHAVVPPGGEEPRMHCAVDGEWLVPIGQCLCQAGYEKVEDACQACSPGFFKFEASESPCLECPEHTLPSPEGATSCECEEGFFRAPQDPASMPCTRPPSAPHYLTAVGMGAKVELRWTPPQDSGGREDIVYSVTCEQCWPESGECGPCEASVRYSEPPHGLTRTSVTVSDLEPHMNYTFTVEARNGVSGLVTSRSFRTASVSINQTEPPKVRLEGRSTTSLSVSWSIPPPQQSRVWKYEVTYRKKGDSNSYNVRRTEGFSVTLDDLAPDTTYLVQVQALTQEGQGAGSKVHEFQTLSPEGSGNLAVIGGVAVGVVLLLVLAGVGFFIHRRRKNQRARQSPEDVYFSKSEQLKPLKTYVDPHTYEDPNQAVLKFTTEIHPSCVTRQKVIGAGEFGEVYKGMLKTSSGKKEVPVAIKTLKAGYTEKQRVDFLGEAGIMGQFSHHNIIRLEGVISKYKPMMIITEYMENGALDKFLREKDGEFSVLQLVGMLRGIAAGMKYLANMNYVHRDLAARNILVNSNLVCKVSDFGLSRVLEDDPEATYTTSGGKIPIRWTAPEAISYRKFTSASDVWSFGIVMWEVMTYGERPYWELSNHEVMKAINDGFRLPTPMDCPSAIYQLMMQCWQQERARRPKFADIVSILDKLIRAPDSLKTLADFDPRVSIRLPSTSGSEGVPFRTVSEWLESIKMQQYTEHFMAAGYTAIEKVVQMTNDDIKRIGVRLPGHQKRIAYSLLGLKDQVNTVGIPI
T4 sequence (Q1KL86 25-537): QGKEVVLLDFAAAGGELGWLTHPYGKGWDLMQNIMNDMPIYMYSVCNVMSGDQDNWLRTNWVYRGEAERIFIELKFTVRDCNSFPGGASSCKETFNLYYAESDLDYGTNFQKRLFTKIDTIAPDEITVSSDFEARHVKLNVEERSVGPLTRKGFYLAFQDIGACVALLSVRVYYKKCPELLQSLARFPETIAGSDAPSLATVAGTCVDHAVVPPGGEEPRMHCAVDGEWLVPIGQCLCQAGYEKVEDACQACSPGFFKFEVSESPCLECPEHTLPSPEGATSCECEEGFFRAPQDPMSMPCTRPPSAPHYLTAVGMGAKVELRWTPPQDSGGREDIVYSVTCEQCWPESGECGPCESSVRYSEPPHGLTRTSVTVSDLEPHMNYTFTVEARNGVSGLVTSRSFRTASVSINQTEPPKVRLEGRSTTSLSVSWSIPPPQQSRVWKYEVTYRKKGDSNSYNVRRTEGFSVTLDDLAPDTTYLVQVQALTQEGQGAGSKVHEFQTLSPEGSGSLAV
T2 sequence (P29317 24-537 limits assumed): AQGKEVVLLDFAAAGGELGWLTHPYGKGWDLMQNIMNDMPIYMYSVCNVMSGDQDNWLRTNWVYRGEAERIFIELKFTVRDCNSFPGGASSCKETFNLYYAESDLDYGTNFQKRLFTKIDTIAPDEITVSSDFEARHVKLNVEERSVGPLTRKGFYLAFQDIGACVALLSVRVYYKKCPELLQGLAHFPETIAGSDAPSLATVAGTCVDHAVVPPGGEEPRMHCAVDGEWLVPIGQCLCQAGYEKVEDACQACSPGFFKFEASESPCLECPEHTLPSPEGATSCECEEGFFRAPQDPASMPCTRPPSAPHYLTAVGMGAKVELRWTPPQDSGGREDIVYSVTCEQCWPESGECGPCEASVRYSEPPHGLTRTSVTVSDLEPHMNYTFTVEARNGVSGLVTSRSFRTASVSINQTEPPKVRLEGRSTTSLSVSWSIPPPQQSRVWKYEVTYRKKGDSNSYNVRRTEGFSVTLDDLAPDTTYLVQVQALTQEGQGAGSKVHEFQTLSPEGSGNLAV
T3 sequence (Q03145 26-538): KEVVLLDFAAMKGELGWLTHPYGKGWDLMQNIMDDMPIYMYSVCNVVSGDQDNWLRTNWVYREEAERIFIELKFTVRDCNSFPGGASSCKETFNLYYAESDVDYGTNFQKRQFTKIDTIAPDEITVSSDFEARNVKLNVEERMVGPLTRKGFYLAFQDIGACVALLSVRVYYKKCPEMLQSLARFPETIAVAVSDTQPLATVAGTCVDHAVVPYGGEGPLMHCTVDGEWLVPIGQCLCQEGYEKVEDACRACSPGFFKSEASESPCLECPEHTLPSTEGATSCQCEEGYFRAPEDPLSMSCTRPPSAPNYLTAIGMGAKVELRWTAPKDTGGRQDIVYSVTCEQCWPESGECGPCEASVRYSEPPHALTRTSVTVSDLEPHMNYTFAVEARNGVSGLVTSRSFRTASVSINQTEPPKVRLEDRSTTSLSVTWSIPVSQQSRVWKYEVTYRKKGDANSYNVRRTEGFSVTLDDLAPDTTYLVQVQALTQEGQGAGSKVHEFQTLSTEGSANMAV
Protocol for cyno EphA2 ectodomain: (§4) A human Fab capture method was utilized in order to determine kinetics for the antibodies. […] Each channel has two flow cells. The reference flow cell contained only immobilized anti-Fab, whereas the reaction flow cell captured anti-EphA2 IgG through anti-Fab. HBS-EP+ Buffer, pH 7.6 was used as the running buffer. The soluble human, mouse and cyno EphA2 ectodomain flowed over both flow cells on 8 channels. The EphA2 ectodomain concentration started at 50 nM and was serially diluted at one part to one part (1:1) in the running buffer for six concentrations. The analysis chamber was kept at 37° C. Regeneration was performed at the end of each sample washing with the solution of 10 mM Glycine-HCl, pH 2.1 provided in the kit.
(§5) The data were analysed using the Biacore Insight Evaluation Software. Double reference subtraction was completed to generate the final data. The raw data was fitted to a 1:1 binding model, with parameter(s) Rₘₐₓ set to local.
Protocol for human EphA2 ectodomain: as §4, §5
Protocol for mouse EphA2 ectodomain: as §4, §5

B1: anti-EphA2 E152C S375C 1C1 (LC N92Q) hIgG1 (WT Heavy Chain) (antibody, V domains shown)
VH: EVQLLESGGGLVQPGGSLRLSCAASGFTFSHYMMAWVRQAPGKGLEWVSRIGPSGGPTHYADSVKGRFTISRDNSKNTLYLQMNSLRAEDTAVYYCAGYDSGYDYVAVAGPAEYFQHWGQGTLVTVSS
VL: DIQMTQSPSSLSASVGDRVTITCRASQSISTWLAWYQQKPGKAPKLLIYKASNLHTGVPSRFSGSGSGTEFSLTISGLQPDDFATYYCQQYQSYSRTFGQGTKVEIKR
notes: also called 1C1 N92Q IgG; DE-54-AX20
Take B1: the EC50 in [1] came out at 3.83 nM; in [2], 1.95 nM. The Kd is 196 nM in the assay with human EphA2 ectodomain; 385 nM with mouse EphA2 ectodomain; 230 nM with cyno EphA2 ectodomain; 0.114 nM in assay [3]; 0.089 nM and 0.138 nM in [4]. Moreover, the koff with human EphA2 ectodomain is 0.0531 s⁻¹; with mouse EphA2 ectodomain, 0.0661 s⁻¹; with cyno EphA2 ectodomain it was 0.0719 s⁻¹. Also, the results for the kon in the assay with human EphA2 ectodomain, in the assay with mouse EphA2 ectodomain and with cyno EphA2 ectodomain were 271000 M⁻¹ s⁻¹, 172000 M⁻¹ s⁻¹ and 313000 M⁻¹ s⁻¹, respectively.

B2: anti-EphA2_1C1_DAR4_LC_N92Q_G77S (antibody, human IgG1, kappa, V domains shown)
VH: EVQLLESGGGLVQPGGSLRLSCAASGFTFSHYMMAWVRQAPGKGLEWVSRIGPSGGPTHYADSVKGRFTISRDNSKNTLYLQMNSLRAEDTAVYYCAGYDSGYDYVAVAGPAEYFQHWGQGTLVTVSS
VL: DIQMTQSPSSLSASVGDRVTITCRASQSISTWLAWYQQKPGKAPKLLIYKASNLHTGVPSRFSGSGSGTEFSLTISSLQPDDFATYYCQQYQSYSRTFGQGTKVEIKR
notes: also called HE-07-PV32
Consider B2, for which, in assay [5], the EC50 amounted to 2.59 nM.

B3: anti-EphA2 E152C S375C 1C1 (LC S93Q) hIgG1 (WT Heavy Chain) (antibody, V domains shown)
VH: EVQLLESGGGLVQPGGSLRLSCAASGFTFSHYMMAWVRQAPGKGLEWVSRIGPSGGPTHYADSVKGRFTISRDNSKNTLYLQMNSLRAEDTAVYYCAGYDSGYDYVAVAGPAEYFQHWGQGTLVTVSS
VL: DIQMTQSPSSLSASVGDRVTITCRASQSISTWLAWYQQKPGKAPKLLIYKASNLHTGVPSRFSGSGSGTEFSLTISGLQPDDFATYYCQQYNQYSRTFGQGTKVEIKR
notes: also called DA-62-QP06
Consider B3, for which, in [6], the midpoint of the response, the EC50, lay at 2.13 nM. In the assay with human EphA2 ectodomain, this molecule registered a Kd of 237 nM, a koff of 0.0635 s⁻¹ and a kon of 268000 M⁻¹ s⁻¹. In the assay with mouse EphA2 ectodomain, this molecule gave a Kd of 335 nM, a dissociation rate constant (koff) of 0.0552 s⁻¹ and a kon of 165000 M⁻¹ s⁻¹. Also, in the assay with cyno EphA2 ectodomain, the Kd came to 272 nM, the off-rate (koff) is 0.338 s⁻¹ and the kon was determined as 1.24e+06 M⁻¹ s⁻¹.

B4: anti-EphA2_1C1_DAR4_LC_N92Q_S72T_G77S (antibody, human IgG1, kappa, V domains shown)
VH: EVQLLESGGGLVQPGGSLRLSCAASGFTFSHYMMAWVRQAPGKGLEWVSRIGPSGGPTHYADSVKGRFTISRDNSKNTLYLQMNSLRAEDTAVYYCAGYDSGYDYVAVAGPAEYFQHWGQGTLVTVSS
VL: DIQMTQSPSSLSASVGDRVTITCRASQSISTWLAWYQQKPGKAPKLLIYKASNLHTGVPSRFSGSGSGTEFTLTISSLQPDDFATYYCQQYQSYSRTFGQGTKVEIKR
Consider B4, for which the Kd in assay [3] is 0.129 nM; in [4], 0.124 nM and 0.134 nM. The same molecule returned an EC50 in assay [7] of 1.81 nM.

B5: anti-EphA2_1C1_DAR4_LC_N92Q_S72T (antibody, human IgG1, kappa, V domains shown)
VH: EVQLLESGGGLVQPGGSLRLSCAASGFTFSHYMMAWVRQAPGKGLEWVSRIGPSGGPTHYADSVKGRFTISRDNSKNTLYLQMNSLRAEDTAVYYCAGYDSGYDYVAVAGPAEYFQHWGQGTLVTVSS
VL: DIQMTQSPSSLSASVGDRVTITCRASQSISTWLAWYQQKPGKAPKLLIYKASNLHTGVPSRFSGSGSGTEFTLTISGLQPDDFATYYCQQYQSYSRTFGQGTKVEIKR
notes: also called HA-13-AF39
In assay [8], B5 came in with an EC50 of 1.8 nM. That is a single-digit nanomolar value.

B6: 3207 (antibody, V domains shown)
VH: QVQLQQSGPGLVKPSQTLSLTCAISGDSVSSNSAAWSWIRQSPGRGLEWLGRIYYRSKWYNDYAVSVKSRITINPDTSKNQFSLQLNSVTPEDTAVYYCARLDHRYHEDTVYPGMDVWGQGTLVTVSS
VL: DIELTQPPSVSVAPGQTARISCSGDNLPAYTVTWYQQKPGQAPVLVIYDDSDRPSGIPERFSGSNSGNTATLTISGTQAEDEADYYCASWDPSSGVVFGGGTKLTVL
notes: the legend prints only '3207'; also called IgG (3207); IgG anti-chicken lysozyme antibody
Consider B6, for which the binding result in [9] was “no binding (tested: 200 nM)”.

By EC50 is commonly meant the concentration giving half of the maximal effect. A word on the koff: it is the first-order rate constant of dissociation. A high value points to a short-lived complex. For orientation: kon means the rate constant with which the complex forms. The low end stands for slower complex formation, the high end for faster complex formation.
